Source: article PMC8497992

Assays:
Test in all cases: fluorescence polarization
Conditions in all cases: 50 mM Tris-HCl pH 8.0, 50 mM KCl, 1 mM EDTA; 50 nM labeled oligonucleotide; temperature not stated
[1] = target: SAMHD1 HD domain R366C R366C (UniProt Q9Y3Z3)
[2] = target: SAMHD1 HD domain R366H R366H (UniProt Q9Y3Z3)
[3] = target: SAMHD1 HD domain WT (UniProt Q9Y3Z3)
Sequence of SAMHD1 HD domain WT (Q9Y3Z3 114-626): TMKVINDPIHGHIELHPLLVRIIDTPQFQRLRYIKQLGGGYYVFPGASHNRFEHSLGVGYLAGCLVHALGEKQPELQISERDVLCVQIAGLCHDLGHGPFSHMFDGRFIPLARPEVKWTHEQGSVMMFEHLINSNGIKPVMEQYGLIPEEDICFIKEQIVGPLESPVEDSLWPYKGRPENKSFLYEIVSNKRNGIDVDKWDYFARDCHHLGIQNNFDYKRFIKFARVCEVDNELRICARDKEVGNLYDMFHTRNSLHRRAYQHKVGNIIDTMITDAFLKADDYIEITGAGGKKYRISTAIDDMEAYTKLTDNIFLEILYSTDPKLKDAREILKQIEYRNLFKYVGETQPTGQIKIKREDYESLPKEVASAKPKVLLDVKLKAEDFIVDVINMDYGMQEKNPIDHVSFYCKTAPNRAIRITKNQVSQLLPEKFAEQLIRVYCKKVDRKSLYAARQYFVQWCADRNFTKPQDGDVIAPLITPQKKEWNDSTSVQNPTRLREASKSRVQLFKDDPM

Sequence of SAMHD1 HD domain R366C R366C (Q9Y3Z3 114-626 R366C): as the sequence (Q9Y3Z3 114-626) above, with R253C counted along it
Sequence of SAMHD1 HD domain R366H R366H (Q9Y3Z3 114-626 R366H): as the sequence (Q9Y3Z3 114-626) above, with R253H counted along it

| Substance | Kd [1] [nM] | Kd [2] [nM] | Kd [3] [nM] |
| --- | --- | --- | --- |
| 6FAM-ssDNA57 | 3820 | 2960 | 387 |
| 6FAM-ssRNA40 | 2250 | 2480 | 885 |
